A value given as a limit tells only on which side of the number the result lay.

The target of experiment [1] is InR-CFP (Drosophila) (UniProt P09208). Description: FRET or BRET; sensitised emission FRET, CFP donor and mRFP acceptor, confocal microscopy of fixed larval salivary glands co-expressing both fusions (hsp-Gal4); glands incubated 15 min in Schneider's medium with insulin (100 nM); FRETeff >=10% taken as positive. In general terms: Bioluminescence resonance energy transfer reports proximity on the nanometre scale.

Experiment [2] has the same target. Description: FRET or BRET; sensitised emission FRET, CFP donor and mRFP acceptor, confocal microscopy of fixed larval salivary glands co-expressing both fusions (hsp-Gal4); glands incubated 15 min in Schneider's medium without insulin; FRETeff >=10% taken as positive.
For experiment [3], the target named is Chico-RFP (Drosophila) (UniProt Q9XTN2). Description: FRET or BRET; sensitised emission FRET, CFP donor and mRFP acceptor, confocal microscopy of fixed larval salivary glands co-expressing both fusions (hsp-Gal4); glands incubated 15 min in Schneider's medium with insulin (100 nM); FRETeff >=10% taken as positive.
For experiment [4] the target is unchanged. Description: FRET or BRET; sensitised emission FRET, CFP donor and mRFP acceptor, confocal microscopy of fixed larval salivary glands co-expressing both fusions (hsp-Gal4); glands incubated 15 min in Schneider's medium without insulin; FRETeff >=10% taken as positive.
The next experiment addresses Lnk-CFP (Drosophila). As to the kind of experiment: FRET or BRET; sensitised emission FRET, negative controls with Delta-RFP as acceptor in fixed larval salivary glands; insulin condition not stated; absence of FRET yields values <3%.
The target of experiment [5] is InR-CFP (Drosophila) (UniProt P09208). The experiment is described as above.
Experiment [6] has the same target. Description: FRET or BRET; sensitised emission FRET, CFP donor and mRFP acceptor, confocal microscopy of fixed larval salivary glands co-expressing both fusions (hsp-Gal4); glands incubated 15 min in Schneider's medium without insulin; FRETeff >=10% taken as positive. The source holds these as a separate data set.
Experiment [7] has the same target. As to the kind of experiment: FRET or BRET; sensitised emission FRET, CFP donor and mRFP acceptor, confocal microscopy of fixed larval salivary glands co-expressing both fusions (hsp-Gal4); glands incubated 15 min in Schneider's medium with insulin (100 nM); FRETeff >=10% taken as positive. The source holds these as a separate data set.

Sequence of UniProt P09208 (P09208 1086-2144): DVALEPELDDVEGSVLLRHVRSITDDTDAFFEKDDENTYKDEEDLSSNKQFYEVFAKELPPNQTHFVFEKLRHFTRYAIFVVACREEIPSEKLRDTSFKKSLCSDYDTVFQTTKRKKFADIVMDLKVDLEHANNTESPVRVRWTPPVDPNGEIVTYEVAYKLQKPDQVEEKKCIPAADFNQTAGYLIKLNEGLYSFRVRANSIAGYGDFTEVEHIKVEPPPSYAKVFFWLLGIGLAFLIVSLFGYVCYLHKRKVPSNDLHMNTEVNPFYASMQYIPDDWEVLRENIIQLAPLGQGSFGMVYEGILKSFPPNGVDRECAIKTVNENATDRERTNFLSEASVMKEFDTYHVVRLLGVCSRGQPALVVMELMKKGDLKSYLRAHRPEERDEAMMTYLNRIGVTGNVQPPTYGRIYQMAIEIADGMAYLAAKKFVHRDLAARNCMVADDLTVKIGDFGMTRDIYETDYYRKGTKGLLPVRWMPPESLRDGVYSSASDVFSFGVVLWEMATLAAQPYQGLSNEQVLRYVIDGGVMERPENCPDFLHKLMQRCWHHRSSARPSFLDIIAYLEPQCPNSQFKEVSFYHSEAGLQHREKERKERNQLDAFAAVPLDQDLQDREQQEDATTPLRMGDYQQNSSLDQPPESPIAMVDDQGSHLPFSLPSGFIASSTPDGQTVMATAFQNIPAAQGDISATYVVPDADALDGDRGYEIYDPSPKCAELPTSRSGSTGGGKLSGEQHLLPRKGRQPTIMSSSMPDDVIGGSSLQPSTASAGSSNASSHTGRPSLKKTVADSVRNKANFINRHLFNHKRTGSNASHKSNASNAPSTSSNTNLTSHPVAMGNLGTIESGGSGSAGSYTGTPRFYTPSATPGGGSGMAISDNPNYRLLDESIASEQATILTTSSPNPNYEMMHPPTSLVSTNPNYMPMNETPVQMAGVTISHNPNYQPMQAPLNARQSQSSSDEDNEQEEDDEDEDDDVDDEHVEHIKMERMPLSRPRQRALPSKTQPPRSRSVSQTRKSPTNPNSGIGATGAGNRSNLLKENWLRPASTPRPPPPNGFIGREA

As for Lnk-RFP (natural protein), in the experiment with InR-CFP (Drosophila) [1], the FRET efficiency (FRETeff) was 14% and the percent of tissue samples with positive FRET was found to be 53%. In the experiment with InR-CFP (Drosophila) [2], the FRET efficiency (FRETeff) is 10.8% and the percent of tissue samples with positive FRET was 60%.
As to Lnk-CFP (natural protein), in the experiment with Chico-RFP (Drosophila) [3], the FRET efficiency (FRETeff) worked out at 14.8% and the percent of tissue samples with positive FRET is 73%. Moreover, in the experiment with Chico-RFP (Drosophila) [4], the FRET efficiency (FRETeff) turned out to be 13.3% and the percent of tissue samples with positive FRET was found to be 30%.

B1: Delta-RFP (natural protein)
chain: QVHSSGSFELRLKYFSNDHGRDNEGRCCSGESDGATGKCLGSCKTRFRVCLKHYQATIDTTSQCTYGDVITPILGENSVNLTDAQRFQNKGFTNPIQFPFSFSWPGTFSLIVEAWHDTNNSGNARTNKLLIQRLLVQQVLEVSSEWKTNKSESQYTSLEYDFRVTCDLNYYGSGCAKFCRPRDDSFGHSTCSETGEIICLTGWQGDYCHIPKCAKGCEHGHCDKPNQCVCQLGWKGALCNECVLEPNCIHGTCNKPWTCICNEGWGGLYCNQDLNYCTNHRPCKNGGTCFNTGEGLYTCKCAPGYSGDDCENEIYSCDADVNPCQNGGTCIDEPHTKTGYKCHCANGWSGKMCEEKVLTCSDKPCHQGICRNVRPGLGSKGQGYQCECPIGYSGPNCDLQLDNCSPNPCINGGSCQPSGKCICPAGFSGTRCETNIDDCLGHQCENGGTCIDMVNQYRCQCVPGFHGTHCSSKVDLCLIRPCANGGTCLNLNNDYQCTCRAGFTGKDCSVDIDECSSGPCHNGGTCMNRVNSFECVCANGFRGKQCDEESYDSVTFDAHQYGATTQARADGLTNAQVVLIAVFSVAMPLVAVIAACVVFCMKRKRKRAQEKDDAEARKQNEQNAVATMHHNGSGVGVALASASLGGKTGSNSGLTFDGGNPNIIKNTWDKSVNNICASAAAAAAAAAAADECLMYGGYVASVADNNNANSDFCVAPLQRAKSQKQLNTDPTLMHRGSPAGSSAKGASGGGPGAAEGKRISVLGEGSYCSQRWPSLAAAGVAGACSSQLMAAASVAGSGAGTAQQQRSVVCGTPHM
B1: the FRET efficiency (FRETeff) with Lnk-CFP (Drosophila) and with InR-CFP (Drosophila) [5] was less than 3% in each case.

B2: Chico-RFP (natural protein)
chain: MASISDDGMALSGYLKKLKTMKKKFFVLYEETSTSAARLEYYDTEKKFLQRAEPKRVIYLKNCFNINRRLDTKHRFVIVLSSRDGGFGIVLENENDLRKWLDKLLVLQRNIANSNGTAHSPYDHVWQVVIQKKGISEKVGITGTYHCCLTSKSLTFVCIGPEKTPNGEDRVASIEILLTTIRRCGHASPQCIFYVELGRQSVLGSGDLWMETDNAAIATNMHNTILSAMSAKTESNTNLINVYQNRPDLSHEPMRKRSSSANEASKPINVNVIQNSQNSLELRSCSSPHNYGFGRERCDSLPTRNGTLSESSNQTYFGSNHGLRSNTISGIRPHSTNKHSNSPTFTMPLRCSESEESSISVDESDDNGSFSHYRLNTRSSETAIPEENIDDFASAELFSKVTEQNVSDENYIPMNPVNPTDAIHEKEKADMQRLEDASLHFNFPEHASEKLAKDFDLDSDNQCCRPIRAYSIGNKVEHLKFNKRLGHLNDTGQNPNRVRAYSVGSKSKIPRCDLQRVVLVEDNKHEFTANRSQSSITKEGTSYGSSANRQKKSTSAPLLSLKNQINSDRMSDLMEIDFSQATNLEKQKFIKNNEIPKYIENVFPKAPRTDSSSLTLHATSQKDIFNGTKLNNTAITSEDGYLEMKPVGNGYTPSSNCLPMKVEKLKLSDYQTAPPLTATAAPVHDLNKISTYNISAEKWREQPSRSEEKKSNSPLNDNTFSSKPTNVESTSKSHDVHSANQIDCEKVCAQSSDKLNNHLADKIVENNNLDIGGHEEKKLVHSISSEDYTQIKDKSNDFTKFNEAGYKILQIKSDSSLISSKLYQKGIHKDNLERSQRLTESVNTIPDNATATAVSSSSLTKFNINSAKPAAAADSRSTGTDPSTPQNILQIKDLNFPSRSSSRISQPELHYASLDLPHCSGQNPAKYLKRGSRESPPVSACPEDGNTYAKIDFDQSDSSSSSSNIFNT
With B2, in the experiment with InR-CFP (Drosophila) [6], the FRET efficiency (FRETeff) was found to be 13.5% and the percent of tissue samples with positive FRET was found to be 20%. Also, in the experiment with InR-CFP (Drosophila) [7], the FRET efficiency (FRETeff) was determined as 14.1% and the percent of tissue samples with positive FRET was determined as 71%.

The values above are taken from article PMC3637499.
